Experimental data published in the Human Domainome abundance scans (Beltran et al. 2025).
± gives the uncertainty stated by the source.

B1: E3 ubiquitin-protein ligase NEDD4, residues 836 to 881; numbered along this chain, P46934 (parent)
chain: EIEQGFLPKGWEVRHAPNGRPFFIDHNTKTTTWEDPRLKIPAHLRG

Variants of: B1
Assay: abundance fitness (aPCA) (normalised: wild type 0, dead -1); higher = more abundant; growth selection in yeast, the domain comes from the species named
Conditions: Homo sapiens

Row | Variant | abundance fitness
1 | I24W | -0.356 ± 0.058
2 | I24S | -1.09 ± 0.2
3 | G10W | -0.802 ± 0.061
4 | G10S | -0.831 ± 0.081
5 | G10I | -1.17 ± 0.28
6 | P21F | -0.601 ± 0.1
7 | P21I | 0.033 ± 0.061
8 | P21W | -0.402 ± 0.04
9 | N18H | -0.718 ± 0.097
10 | N18S | -0.241 ± 0.051
11 | H26A | -0.69 ± 0.05
12 | H26F | -0.209 ± 0.098
13 | H26W | -0.327 ± 0.062
14 | H26N | -0.449 ± 0.12
15 | H26I | -0.078 ± 0.1
16 | H26Q | -0.381 ± 0.043
17 | P41Q | -0.32 ± 0.087
18 | P41Y | -0.607 ± 0.14
19 | P41I | 0.029 ± 0.082
20 | P41D | -0.16 ± 0.065
21 | P41K | -0.08 ± 0.066
22 | P41R | -0.117 ± 0.041
23 | R45V | -0.055 ± 0.049
24 | R45A | -0.005 ± 0.061

Row | Variant | abundance fitness
25 | F23M | -0.751 ± 0.12
26 | F23V | -0.651 ± 0.057
27 | F23D | -0.679 ± 0.066
28 | F23T | -0.883 ± 0.14
29 | F23Y | -0.27 ± 0.076
30 | F23W | -0.147 ± 0.049
31 | F23Q | -0.824 ± 0.1
32 | F23N | -0.79 ± 0.15
33 | P17H | -0.276 ± 0.13
34 | P17Y | -0.662 ± 0.13
35 | P17L | -0.197 ± 0.058
36 | P17E | 0.016 ± 0.053
37 | N27W | -0.827 ± 0.12
38 | N27L | -0.417 ± 0.053
39 | N27A | -0.295 ± 0.057
40 | N27F | -0.189 ± 0.066
41 | N27I | -0.105 ± 0.046
42 | T30M | -0.206 ± 0.073
43 | T30S | -0.136 ± 0.051
44 | L7R | -1.03 ± 0.13
45 | L7M | -0.186 ± 0.037
46 | L7F | -0.459 ± 0.098
47 | L7T | -0.441 ± 0.1
48 | L7G | -0.524 ± 0.048

Row | Variant | abundance fitness
49 | L7Y | -0.915 ± 0.23
50 | L7C | -0.882 ± 0.16
51 | D35N | -0.979 ± 0.18
52 | D35S | -0.691 ± 0.067
53 | D35W | -0.849 ± 0.043
54 | I2W | -0.271 ± 0.1
55 | I2T | -0.214 ± 0.099
56 | I2S | -0.166 ± 0.067
57 | I2M | -0.044 ± 0.074
58 | D25W | -0.86 ± 0.17
59 | D25F | -1.04 ± 0.22
60 | D25C | -0.447 ± 0.046
61 | D25Q | -0.951 ± 0.25
62 | L44Q | 0.033 ± 0.063
63 | L44G | 0.056 ± 0.032
64 | L44I | -0.053 ± 0.045
65 | K29F | -0.446 ± 0.11
66 | K29G | -0.002 ± 0.038
67 | K29V | -0.82 ± 0.097
68 | K29P | -0.889 ± 0.046
69 | K29H | -0.224 ± 0.092
70 | P8A | -0.766 ± 0.26
71 | P8D | -0.626 ± 0.088
72 | P8H | 0.162 ± 0.13

Row | Variant | abundance fitness
73 | L38S | -0.019 ± 0.053
74 | L38I | -0.043 ± 0.062
75 | L38W | -0.105 ± 0.062
76 | L38T | 0.033 ± 0.07
77 | L38H | -0.292 ± 0.086
78 | L38Y | -0.435 ± 0.11
79 | L38A | -0.103 ± 0.046
80 | L38R | -0.012 ± 0.033
81 | L38K | -0.105 ± 0.085
82 | V13F | -0.159 ± 0.084
83 | V13C | -0.252 ± 0.052
84 | V13G | -0.747 ± 0.07
85 | V13W | -0.842 ± 0.12
86 | V13P | -0.764 ± 0.14
87 | V13Y | -0.799 ± 0.2
88 | G19K | -0.826 ± 0.17
89 | G19N | -0.551 ± 0.12
90 | G19Q | -0.632 ± 0.15
91 | G19E | -0.628 ± 0.072
92 | Q4L | -0.062 ± 0.051
93 | Q4K | 0.127 ± 0.067
94 | Q4I | -0.335 ± 0.084
95 | H43M | -0.251 ± 0.059
96 | H43F | -0.232 ± 0.055

Row | Variant | abundance fitness
97 | H43Y | -0.041 ± 0.1
98 | E34M | -0.054 ± 0.075
99 | H15G | -0.508 ± 0.065
100 | H15K | 0.081 ± 0.064
101 | H15C | 0.166 ± 0.064
102 | W33Q | -0.337 ± 0.045
103 | W33L | -0.433 ± 0.062
104 | W11P | -0.817 ± 0.12
105 | W11Q | -0.455 ± 0.068
106 | W11F | -0.795 ± 0.21
107 | W11L | -0.648 ± 0.073
108 | R20I | -0.257 ± 0.051
109 | R20Q | 0.137 ± 0.051
110 | R20C | -0.278 ± 0.05
111 | R20H | -0.064 ± 0.071
112 | R20G | -0.917 ± 0.12
113 | R20V | -0.105 ± 0.051
114 | R20L | -0.223 ± 0.036
115 | K39V | -0.201 ± 0.045
116 | K39D | -0.241 ± 0.086
117 | K39H | -0.355 ± 0.075
118 | K39T | -0.023 ± 0.064
119 | K39L | -0.144 ± 0.046
120 | K39Y | -0.319 ± 0.093

Row | Variant | abundance fitness
121 | K39Q | -0.372 ± 0.092
122 | G5M | -0.175 ± 0.066
123 | G5C | -0.21 ± 0.043
124 | G5F | -0.158 ± 0.064
125 | G5E | -0.141 ± 0.076
126 | G5W | -0.105 ± 0.057
127 | E3G | -0.044 ± 0.041
128 | F22T | -0.536 ± 0.06
129 | T31W | -0.311 ± 0.071
130 | T31K | -0.572 ± 0.12
131 | T31S | 0.006 ± 0.042
132 | A16G | -0.108 ± 0.05
133 | A16I | -0.193 ± 0.23
134 | A16P | -0.416 ± 0.14
135 | A16V | -0.505 ± 0.066
136 | T28Y | -0.548 ± 0.12
137 | T28W | -0.971 ± 0.071
138 | T28E | -0.218 ± 0.069
139 | A42R | -0.273 ± 0.074
140 | A42I | -0.398 ± 0.1
141 | I40L | -0.042 ± 0.053
142 | I40Y | -0.27 ± 0.063
143 | I40F | -0.239 ± 0.062
144 | I40K | 0.095 ± 0.07

Row | Variant | abundance fitness
145 | I40S | 0.009 ± 0.056
146 | K9Q | -0.078 ± 0.047
147 | K9T | -0.237 ± 0.091
148 | K9L | -0.257 ± 0.034
149 | K9W | -0.52 ± 0.047
150 | R37E | -0.752 ± 0.17
151 | R37K | -0.758 ± 0.11
152 | R37W | -0.812 ± 0.11
153 | R37V | -0.597 ± 0.044
154 | R37I | -0.75 ± 0.1
155 | R14A | -0.156 ± 0.048
156 | R14S | -0.297 ± 0.042
157 | F6P | 0.001 ± 0.07
158 | F6R | 0.149 ± 0.037
159 | E12F | -0.352 ± 0.11
160 | E12N | -0.949 ± 0.17
161 | E12A | -0.533 ± 0.066
162 | E12R | -0.793 ± 0.067
163 | E12K | -0.599 ± 0.058
164 | P36C | -0.958 ± 0.15
165 | P36F | -1.04 ± 0.34
166 | E1T | 0.091 ± 0.12
167 | E1V | -0.153 ± 0.076
